# Patent publication US20180118791
# Experiments:
# SFNSYTC = tested on: T1, SFNSYTC
# T1 sequence: SFNSYTC
# [1] = tested on: T2, mutacin 1140 C-terminal carboxyl analog (mu1140-COOH)
# T2 sequence: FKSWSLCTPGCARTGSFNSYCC
substance,measurement,setting,value
MutD,"Observed mass (Da) after in vitro decarboxylation with MutD, 1 hr (MALDI-TOF)",SFNSYTC,798 Da
same,"Observed mass (Da) after in vitro decarboxylation with MutD, 1 hr (MALDI-TOF)",[1],2310 Da
same,"Observed mass (Da) after in vitro decarboxylation with MutD, 10 hr (MALDI-TOF)",[1],2310 Da
